Experimental data as given in publication doi:10.1101/2023.03.24.534125 (bioRxiv, 2023).

Molecular target: T1, CRISPR array binding protein 1, Cbp1 (S. solfataricus P2, SSO0454) (S. solfataricus P2, UniProt Q97ZW9 1-150)
T1 sequence (looked up): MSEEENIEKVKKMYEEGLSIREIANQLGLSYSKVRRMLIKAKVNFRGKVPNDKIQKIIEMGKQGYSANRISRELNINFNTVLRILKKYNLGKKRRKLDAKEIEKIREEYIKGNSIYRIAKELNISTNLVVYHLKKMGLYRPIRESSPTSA
Experiment: native gel or EMSA

stoichiometry N: 2
B1: Cren7 (S. solfataricus, SSO6901) (natural protein, UniProt Q97ZE3 1-60, looked up)
chain: MSSGKKPVKVKTPAGKEAELVPEKVWALAPKGRKGVKIGLFKDPETGKYFRHKLPDDYPI
